Test results as given in article PMC11388181.

What was measured:
[1] = Confocal immunofluorescence, HEK293; conditions: glycan lost; control: wild type
[2] = Western blot, B7-H5/GAPDH, HEK293 lysates; conditions: glycan lost; control: wild type

Substance | localisation_or_trafficking [1] | expression_or_secretion [2]
B7-H5/VISTA: N135A | no change | no change
B7-H5/VISTA: N91A | no change | no change
B7-H5/VISTA: N108A | no change | no change
B7-H5/VISTA: N49A | no change | no change
B7-H5/VISTA: N128A | no change | no change
